Reference: patent US9266964
Where a chain is given by its changes, count along the chain named.

B1: M198-C05 (Fab, V domains shown)
VH: EVQLLESGGGLVQPGGSLRLSCAASGFTFSRYKMYWVRQAPGKGLEWVSVIGPSGGATFYADSVKGRFTISRDNSKNTLYLQMNSLRAEDTAVYYCAYRRTGIPRRDAFDIWGQGTMVTVSS
VL: DIQMTQSPSTLSASVGDRVTITCRASQSISSWLAWYQQKPGKAPNLLIYKASTLESGVPSRFSGSGSGTEFTLTISSLQPDDFATYYCQQYNTYWTFGQGTKVEIK
B2: M200-F01 (Fab, V domains shown)
VH: B1 VH with R31H, K33I, Y35M, V50G, G52Y, P53S, A57I, F59V, T101M, D107N
VL: B1 VL
B3: M197-G11 (Fab, V domains shown)
VH: B1 VH with R31T, K33A, Y35V, V50S, G52Y, A57I, F59T
VL: B1 VL
B4: M202-A04 (Fab, V domains shown)
VH: B1 VH with R31H, K33I, Y35M, V50G, G52Y, P53S, A57I, F59V, T101K, A108D
VL: B1 VL
B5: M198-G03 (Fab, V domains shown)
VH: EVQLLESGGGLVQPGGSLRLSCAASGFTFSQYTMVWVRQAPGKGLEWVSWIYSSRANYADSVKGRFTISRDNSKNTLYLQMNSLRAEDTAVYYCAYRRTGIPRRDAFDIWGQGTMVTVSS
VL: B1 VL
B6: M197-C12 (Fab, V domains shown)
VH: B1 VH with R31P, K33D, Y35L, V50Y, G52V, P53S, A57L, F59K
VL: B1 VL
B7: M202-B04 (Fab, V domains shown)
VH: EVQLLESGGGLVQPGGSLRLSCAASGFTFSHYIMMWVRQAPGKGLEWVSGIYSSGGITVYADSVKGRFTISRDNSKNTLYLQMNSLRAEDTAVYYCAYRRSGVPRRDDFDIWGQGTMVTVSS
VL: B1 VL
B8: M195-G02 (Fab, V domains shown)
VH: B1 VH with R31P, K33N, Y35M, V50S, G52W, A57T, F59D
VL: B1 VL
B9: M196-G12 (Fab, V domains shown)
VH: B1 VH with R31N, K33S, Y35D, V50R, G52Y, P53S, A57G, F59I
VL: B1 VL
B10: M201-F11 (Fab, V domains shown)
VH: B7 VH with V103I, D108A
VL: B1 VL
B11: M198-A01 (Fab, V domains shown)
VH: B1 VH with R31P, K33T, Y35I, G44L, L45G, V50S, G52S, P53S, A57M, F59P
VL: B1 VL
B12: M195-F12 (Fab, V domains shown)
VH: B1 VH with R31H, K33V, Y35M, V50Y, G52V, A57V, F59A
VL: B1 VL
B13: M200-E11 (Fab, V domains shown)
VH: B7 VH with S101T, D108A, I111N
VL: B1 VL
B14: M202-C02 (Fab, V domains shown)
VH: B7 VH with S101P, D108A
VL: B1 VL
B15: M197-G10 (Fab, V domains shown)
VH: B1 VH with R31V, K33A, Y35R, V50S, G52Y, A57K, F59W
VL: B1 VL
B16: M198-C09 (Fab, V domains shown)
VH: B1 VH with R31I, K33T, V50S, G52S, A57W, F59Y
VL: B1 VL
B17: M195-B02 (Fab, V domains shown)
VH: B1 VH with R31P, K33L, Y35W, V50Y, A57P, F59H
VL: B1 VL
B18: M195-A02 (Fab, V domains shown)
VH: B7 VH with H31Q, I33M, Y52S, I57H, V59D, S101T, V103I, D108A
VL: B1 VL
B19: M196-H03 (Fab, V domains shown)
VH: EVQLLESGGGLVQPGGSLRLSCAASGFTFSRYVMWWVRQAPGKGLEWVSSISPSGDTHYADSVKGRFTISRDNSKNTLYLQMNSLRAEDTAVYYCAYRRTGIPRRDAFDIWGQGTMVTVSS
VL: B1 VL
B20: M195-A12 (Fab, V domains shown)
VH: B7 VH with H31P, I33M, S53P, I57Y, S101T, V103I, D108A
VL: B1 VL
B21: M198-C06 (Fab, V domains shown)
VH: B1 VH with R31Q, K33F, Y35H, V50Y, G52Y, A57M, F59E
VL: B1 VL
B22: M202-A08 (Fab, V domains shown)
VH: B7 VH with S101T, V103I, R106W, D108A
VL: B1 VL
B23: M198-H09 (Fab, V domains shown)
VH: B1 VH with R31I, K33L, Y35I, V50Y, A57P, F59E
VL: B1 VL
B24: M198-C03 (Fab, V domains shown)
VH: B1 VH with K33S, Y35S, V50G, G52S, A57E, F59S
VL: B1 VL
B25: M202-A10 (Fab, V domains shown)
VH: B7 VH with Y98F, S101T, V103I, D108S
VL: B1 VL
B26: M198-A08 (Fab, V domains shown)
VH: B19 VH with R31W, V33M, W35Q, S50R, D56G, H58T
VL: B1 VL
B27: M202-E03 (Fab, V domains shown)
VH: B7 VH with S101T, V103I, D108A, D110E
VL: B1 VL
B28: M198-B12 (Fab, V domains shown)
VH: B1 VH with R31K, K33S, Y35A, V50G, G52Y, A57R, F59L
VL: B1 VL
B29: M196-D02 (Fab, V domains shown)
VH: B1 VH with R31V, K33S, Y35H, A57I, F59L
VL: B1 VL
B30: M195-E12 (Fab, V domains shown)
VH: B1 VH with R31Y, K33I, Y35F, V50Y, G52S, A57Y, F59H
VL: B1 VL
B31: M201-A06 (Fab, V domains shown)
VH: B7 VH with S101T, V103I, D108V
VL: B1 VL
B32: M201-H08 (Fab, V domains shown)
VH: B7 VH with S101T, D108A, F109L, I111N
VL: B1 VL
B33: M200-B01 (Fab, V domains shown)
VH: B7 VH with S101T, V103I, D108A, I111S
VL: B1 VL
B34: M198-A09 (Fab, V domains shown)
VH: B1 VH with R31I, K33F, Y35S, V50S, G52R, P53S, A57P, F59W
VL: B1 VL
B35: M198-F12 (Fab, V domains shown)
VH: B1 VH with R31I, K33T, Y35M, V50S, G52W, P53S, A57Q, F59K
VL: B1 VL
B36: M199-A11 (Fab, V domains shown)
VH: B7 VH with S101R, V103I, D108A
VL: B1 VL
B37: M199-B01 (Fab, V domains shown)
VH: B7 VH with Y98F, S101T, V103I, D108A, I111N
VL: B1 VL

target: human plasma kallikrein (human, UniProt P03952 20-390; P03952 391-638); assay: cell-based or functional assay
Sequence (P03952 20-390, chain 1 of 2): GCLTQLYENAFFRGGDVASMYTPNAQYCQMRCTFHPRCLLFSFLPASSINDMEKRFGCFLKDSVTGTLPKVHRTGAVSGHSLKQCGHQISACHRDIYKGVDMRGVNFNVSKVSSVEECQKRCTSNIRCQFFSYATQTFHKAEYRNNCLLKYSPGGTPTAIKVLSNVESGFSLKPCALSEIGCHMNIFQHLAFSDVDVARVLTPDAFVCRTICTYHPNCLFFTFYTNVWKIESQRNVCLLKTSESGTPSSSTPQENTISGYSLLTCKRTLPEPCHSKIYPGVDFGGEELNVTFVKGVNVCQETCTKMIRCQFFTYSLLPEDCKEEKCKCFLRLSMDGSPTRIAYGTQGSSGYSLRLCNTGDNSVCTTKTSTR
Sequence (P03952 391-638, chain 2 of 2): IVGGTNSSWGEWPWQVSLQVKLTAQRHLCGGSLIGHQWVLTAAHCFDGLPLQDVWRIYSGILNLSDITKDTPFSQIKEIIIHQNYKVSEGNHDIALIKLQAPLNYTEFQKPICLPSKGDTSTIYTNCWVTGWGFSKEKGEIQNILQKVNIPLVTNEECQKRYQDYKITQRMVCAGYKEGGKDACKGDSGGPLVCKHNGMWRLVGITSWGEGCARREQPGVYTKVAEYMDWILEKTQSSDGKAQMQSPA

| Binder | % inhibition at 10 nM [%] |
| --- | --- |
| B1 | 83.9 |
| B2 | 65.1 |
| B3 | 19.2 |
| B4 | 81.2 |
| B5 | 53.8 |
| B6 | 56.4 |
| B7 | 81.9 |
| B8 | 67.5 |
| B9 | 51.1 |
| B10 | 15.7 |
| B11 | 13.8 |
| B12 | 45.5 |
| B13 | 83.2 |
| B14 | 74.3 |
| B15 | 67.6 |
| B16 | 75.4 |
| B17 | 75.1 |
| B18 | 71.3 |
| B19 | 83.9 |

| Binder | % inhibition at 10 nM [%] |
| --- | --- |
| B20 | 51.7 |
| B21 | 76.5 |
| B22 | 52.9 |
| B23 | 41.1 |
| B24 | 72.4 |
| B25 | 36.3 |
| B26 | 72.3 |
| B27 | 51.4 |
| B28 | 80.7 |
| B29 | 66.2 |
| B30 | 38 |
| B31 | 36.8 |
| B32 | 74.5 |
| B33 | 42.6 |
| B34 | 77.3 |
| B35 | 74.6 |
| B36 | 65.4 |
| B37 | 53.4 |
